Measurements published in doi:10.1101/2022.06.16.496122.

Biological target: Trypanosoma brucei ADAT3 (full-length, His-tagged) (Trypanosoma brucei)
Assay: cryo-EM structure

## Trypanosoma brucei ADAT2 (full-length, A87G/C117S) (enzyme)
  stoichiometry N: 1
